This test has as its target Neuropilin 1 (NRP1), R&D 3870-N1-025 (UniProt O14786). Briefly: BLI (Octet), biotinylated NRP1 on SA biosensor, 1:1 global fit.

One may read the Kd as the free concentration of one partner at which half of the binding sites on the other are occupied at equilibrium, for simple one-to-one binding. The term koff denotes a measure of how fast the partners let go of each other. High values mean fast dissociation, low ones slow dissociation. For orientation: kon means the rate constant with which the complex forms. Read a high kon as fast association.

Neuropilin 1 (NRP1), R&D 3870-N1-025, sequence (O14786 other isoform, or with tags, fused parts or gaps limits assumed): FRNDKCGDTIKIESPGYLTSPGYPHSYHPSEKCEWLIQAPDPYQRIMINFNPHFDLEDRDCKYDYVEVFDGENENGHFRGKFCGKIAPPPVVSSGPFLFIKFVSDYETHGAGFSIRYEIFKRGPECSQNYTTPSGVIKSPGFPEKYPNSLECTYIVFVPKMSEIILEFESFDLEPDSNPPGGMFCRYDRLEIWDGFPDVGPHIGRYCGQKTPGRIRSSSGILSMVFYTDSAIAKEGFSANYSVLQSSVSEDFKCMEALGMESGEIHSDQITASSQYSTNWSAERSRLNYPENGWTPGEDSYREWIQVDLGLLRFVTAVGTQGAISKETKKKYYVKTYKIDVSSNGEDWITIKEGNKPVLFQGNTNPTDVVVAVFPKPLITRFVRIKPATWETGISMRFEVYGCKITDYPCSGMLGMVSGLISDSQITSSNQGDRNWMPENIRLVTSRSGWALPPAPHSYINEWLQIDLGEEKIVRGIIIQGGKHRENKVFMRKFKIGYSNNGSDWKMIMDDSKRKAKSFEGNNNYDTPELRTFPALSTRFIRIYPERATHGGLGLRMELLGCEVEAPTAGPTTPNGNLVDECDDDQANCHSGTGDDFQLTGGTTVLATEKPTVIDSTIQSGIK

With “Vascular endothelial growth factor (VEGF) (ligand)”, the Kd amounted to 5.53 nM, the off-rate (koff) was 0.0015 s⁻¹ and the kon was found to be 272000 M⁻¹ s⁻¹.

Values taken from patent US20260139017A1, “COMPOSITIONS AND METHODS USING REELIN IN ALZHEIMER'S DISEASE” (The General Hospital Corporation, priority 2022, published 2026).
